Reference: paper PMC9892492, “Bioconversion of 4-hydroxyestradiol by extradiol ring-cleavage dioxygenases from Novosphingobium sp. PP1Y” (Scientific Reports, 2023)

B1: PP00124 (Novosphingobium sp. PP1Y) (protein)
chain: MVAVTELGYLGLTVTDLDAWRSYAAEVAGMEIVDEGEGDCLYLRMDQWHHRIALHAGDTDDLAYLGWRVAGPVEFDAMVAQLAAAGIAVEVASEAEARERRVLGLAKLADPGGNPTEIFYAPQVDTHKPFHPGRPMFGRFLTGSEGIGHCILRQDDVAAAAAFYGLLGLRGSVEYHLQLPNGMVAQPYFMHCNERQHSIAFGLGPMEKRINHLMFEYTDLDDLGLAHDIVRARKIDVALQLGKHANDQALTFYCANPSGWLWEFGWGARKAPSQQEYYTRDIFGHGNEAAGYGMDIPLG
notes: full ORF in pET22b(+), E. coli BL21(DE3); Q-Sepharose batch purified; no tag mentioned
B2: PP00193 (Novosphingobium sp. PP1Y) (protein)
chain: MALTGVLRPGYVQLRVLDLDEAIQHYRDRIGLNLVSVEDGRAFFQAFDEFDRHSIILREADSAGLDRMAFKVAKDADLDHFAERLLDMGVHVDIIPAGEDPGVGRKIRFNTPTAHVFDLYAEMELSETGPAVRNPDVWIAEPRGMRATRFDHCALNGVDISASAKIFVEALDFSVTEELVDEASGTRLGIFLSCSNKAHDVAFLGYPEDGRIHHTSFNLESWHDVGHAADIISRYDISLDIGPTRHGITRGQTIYFFDPSGNRNETFSGGYTYYPDNPRRMWQAENAGKAIFYYEKALNDRFMTVNT
notes: as for B1
B3: PP26077 (Novosphingobium sp. PP1Y) (protein)
chain: MGIKALGYVVVETAKPEEWNTFLTQFAGAMRAPDAADGAALYRVDDRVFRFRIEAGTREWFVAAGYELTDRAALDALAVRIGDAARPVEWADANEAAGRGAEAMFRTSDPAGNGLEFYCGDARSDKPFVSPIGVPEFLTGDLGMGHAVFSAPDFEETIAFHRDVVGFHETDMPRFHLMGPDAPSMGFAFLHADNGRHHSIAFGEGPVPPSGAVHIMLELPDLIEVGKAHDRMKRFGYPESATLGRHVNDETTGFYVQTPSGFDLEIGCDSLIIDPASWEVTKHEGISVWGHEWAWQKALKEQQEQEKGA
notes: as for B1

Experiments:
Test in all cases: purified protein
Details in all cases: 50 mM Tris/HCl pH 7.5, 25 °C, O2 co-substrate, Fe(II) enzyme
Cc1cccc(O)c1O = tested on: T1, Cc1cccc(O)c1O; assay type: biochemical, Novosphingobium sp. PP1Y
T1 construct: full ORF in pET22b(+), E. coli BL21(DE3); Q Sepharose column purified, contaminated; no tag mentioned

Oc1cccc(-c2ccccc2)c1O = tested on: Oc1cccc(-c2ccccc2)c1O
[1] = tested on: [H][C@@]12CCc3c(ccc(O)c3O)[C@@]1([H])CC[C@]1(C)[C@@H](O)CC[C@@]21[H]
purified protein [2] = substrate: Oc1cccc(-c2ccccc2)c1O; remark: listed apart in the source
purified protein [3] = substrate: Cc1ccc(O)c(O)c1; assay type: biochemical, Novosphingobium sp. PP1Y
purified protein [4] = substrate: Cc1cccc(O)c1O; assay type: biochemical, Novosphingobium sp. PP1Y
purified protein [5] = substrate: Oc1ccccc1O; assay type: biochemical, Novosphingobium sp. PP1Y
purified protein [6] = substrate: [H][C@@]12CCc3c(ccc(O)c3O)[C@@]1([H])CC[C@]1(C)[C@@H](O)CC[C@@]21[H]; assay type: biochemical, Novosphingobium sp. PP1Y

Row | Molecule | Km (purified protein [2]) [µM] | kcat (purified protein [2]) [s⁻¹] | kcat/Km (purified protein [2]) [M⁻¹ s⁻¹] | Km (purified protein [3]) [µM] | kcat (purified protein [3]) [s⁻¹] | kcat/Km (purified protein [3]) [M⁻¹ s⁻¹] | Km (purified protein [4]) [µM] | kcat (purified protein [4]) [s⁻¹] | kcat/Km (purified protein [4]) [M⁻¹ s⁻¹] | Km (purified protein [5]) [µM] | kcat (purified protein [5]) [s⁻¹] | kcat/Km (purified protein [5]) [M⁻¹ s⁻¹] | other results
1 | PP28735 (Novosphingobium sp. PP1Y) | – | – | – | – | – | – | – | – | – | – | – | – | Km (Cc1cccc(O)c1O): 451 µM; kcat (Cc1cccc(O)c1O): 1.47 s⁻¹; kcat/Km (Cc1cccc(O)c1O): 3300 M⁻¹ s⁻¹; Km (Oc1cccc(-c2ccccc2)c1O): 67.90 µM; kcat (Oc1cccc(-c2ccccc2)c1O): 18.6 s⁻¹; kcat/Km (Oc1cccc(-c2ccccc2)c1O): 270000 M⁻¹ s⁻¹; Km [1]: 1.90 µM; kcat [1]: 38.2 s⁻¹; kcat/Km [1]: 2.01e+07 M⁻¹ s⁻¹
2 | B1 | 3.70 | 13.8 | 3.72e+06 | 1.80 | 2.97 | 1.65e+06 | 2.90 | 10.2 | 3.53e+06 | 38.20 | 5.44 | 140000 | Km (purified protein [6]): 0.75 µM; kcat (purified protein [6]): 8.6 s⁻¹; kcat/Km (purified protein [6]): 1.14e+07 M⁻¹ s⁻¹
3 | B2 | 3.15 | 30.5 | 9.7e+06 | 1.89 | 120 | 6.35e+07 | 3.17 | 225 | 7.09e+07 | 1.69 | 194 | 1.15e+08 | –
4 | B3 | 35.20 | 8.9 | 250000 | – | – | – | 2600 | 3 | 1200 | – | – | – | –
